One molecule from patent US20260007698A1 (published 2026) can be followed below.

The target of assay [1] is T1, VCX; peptide VCX-23 peptide on HLA-A*11:01 (human).
T1 peptide: SSQPSPSDPK
Description: killing.

The target of assay [2] is T2, VCY (Variable charge Y-linked) CT antigen; peptide VCY-23 peptide on HLA-A*11:01 (human).
T2 peptide: SSQPSPSGPK
Kind of assay: multimer staining.

B1: VCY-23 specific TCR (TCR, V domains shown)
Valpha: RKEVEQDPGPFNVPEGATVAFNCTYSNSASQSFFWYRQDCRKEPKLLMSVYSSGNEDGRFTAQLNRASQYISLLIRDSKLSDSATYLCVVTFDNYGQNFVFGPGTRLSVLP
Vbeta: NAGVTQTPKFRVLKTGQSMTLLCAQDMNHEYMYWYRQDPGMGLRLIHYSVGEGTTAKGEVPDGYNVSRLKKQNFLLGLESAAPSQTSVYFCASSYTYNYNEQFFGPGTRLTVL
As for B1, the results for the binding result in assay [1] and in assay [2] were “no recognition” and “recognises”, respectively.
